Laboratory results taken from patent publication US20070244048A1 (published 2007).
Where two headings read alike, the source gives them in different places. Non-standard residues stand in square brackets, D forms with d. No end group written: not given here.

How the values were obtained:
human NMUR1 [1] = biological target: T1, human NMUR1 (human, UniProt Q9HB89 1-426); assay: cell-based or functional assay
T1 sequence (looked up): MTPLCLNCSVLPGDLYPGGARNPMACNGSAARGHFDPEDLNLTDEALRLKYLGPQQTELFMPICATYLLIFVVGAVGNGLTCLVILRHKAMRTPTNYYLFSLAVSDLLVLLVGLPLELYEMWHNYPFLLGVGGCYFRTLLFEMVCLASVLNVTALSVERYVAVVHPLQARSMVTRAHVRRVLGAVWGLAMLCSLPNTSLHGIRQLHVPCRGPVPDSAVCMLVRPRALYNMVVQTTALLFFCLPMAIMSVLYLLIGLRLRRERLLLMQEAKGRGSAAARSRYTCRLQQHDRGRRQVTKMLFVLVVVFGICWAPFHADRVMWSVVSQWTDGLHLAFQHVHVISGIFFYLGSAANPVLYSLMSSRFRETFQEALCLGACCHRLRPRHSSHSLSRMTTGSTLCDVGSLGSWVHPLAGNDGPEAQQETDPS

human NMUR2 [2] = biological target: T2, human NMUR2 (human, UniProt Q9GZQ4 1-415); assay: cell-based or functional assay
T2 sequence (Q9GZQ4 whole entry): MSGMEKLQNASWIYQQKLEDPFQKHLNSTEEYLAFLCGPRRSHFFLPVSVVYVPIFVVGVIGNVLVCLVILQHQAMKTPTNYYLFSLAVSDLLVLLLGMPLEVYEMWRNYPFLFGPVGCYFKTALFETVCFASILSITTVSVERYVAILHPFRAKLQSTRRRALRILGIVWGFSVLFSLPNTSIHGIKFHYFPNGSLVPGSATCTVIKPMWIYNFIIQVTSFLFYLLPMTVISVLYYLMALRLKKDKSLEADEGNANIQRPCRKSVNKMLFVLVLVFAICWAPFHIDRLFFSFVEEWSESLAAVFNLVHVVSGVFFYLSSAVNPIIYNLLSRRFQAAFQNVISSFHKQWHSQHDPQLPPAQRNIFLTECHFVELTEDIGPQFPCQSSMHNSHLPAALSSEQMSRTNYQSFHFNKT

mouse NMUR1-ATG [3] = biological target: T3, mouse NMUR1-ATG (mouse, UniProt O55040 1-428); assay: cell-based or functional assay
T3 sequence (looked up): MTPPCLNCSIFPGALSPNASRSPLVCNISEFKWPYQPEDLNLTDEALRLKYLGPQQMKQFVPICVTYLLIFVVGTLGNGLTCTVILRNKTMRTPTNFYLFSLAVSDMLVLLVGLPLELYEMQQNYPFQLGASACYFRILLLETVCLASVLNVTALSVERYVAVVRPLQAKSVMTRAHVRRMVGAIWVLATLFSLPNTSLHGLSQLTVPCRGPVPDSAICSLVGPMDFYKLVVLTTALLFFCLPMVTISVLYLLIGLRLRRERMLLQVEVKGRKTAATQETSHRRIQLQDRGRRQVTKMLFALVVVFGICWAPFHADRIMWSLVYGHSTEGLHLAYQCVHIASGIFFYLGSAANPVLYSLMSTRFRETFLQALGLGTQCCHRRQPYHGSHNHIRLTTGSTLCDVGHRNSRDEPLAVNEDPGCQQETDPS

mouse NMUR1-CTG [4] = biological target: T4, mouse NMUR1-CTG (mouse, UniProt O55040 1-428); assay: cell-based or functional assay
T4 sequence (looked up): T3 sequence (looked up)

mouse NMUR2 [5] = biological target: T5, mouse NMUR2 (mouse, UniProt Q8BZ39 1-395); assay: cell-based or functional assay
T5 sequence (Q8BZ39 whole entry): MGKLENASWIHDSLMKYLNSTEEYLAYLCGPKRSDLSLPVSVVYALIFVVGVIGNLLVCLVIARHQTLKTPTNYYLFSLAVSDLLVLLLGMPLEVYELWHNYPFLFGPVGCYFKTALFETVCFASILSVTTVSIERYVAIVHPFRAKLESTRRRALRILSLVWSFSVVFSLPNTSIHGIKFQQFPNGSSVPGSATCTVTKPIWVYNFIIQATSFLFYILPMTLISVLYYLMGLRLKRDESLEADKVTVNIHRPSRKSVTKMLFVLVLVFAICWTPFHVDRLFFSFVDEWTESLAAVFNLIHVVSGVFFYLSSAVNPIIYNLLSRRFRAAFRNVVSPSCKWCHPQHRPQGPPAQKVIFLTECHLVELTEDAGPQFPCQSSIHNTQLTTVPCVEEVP

rat NMUR1-ATG [6] = biological target: T6, rat NMUR1-ATG (rat, UniProt Q9JJI5 1-425); assay: cell-based or functional assay
T6 sequence (looked up): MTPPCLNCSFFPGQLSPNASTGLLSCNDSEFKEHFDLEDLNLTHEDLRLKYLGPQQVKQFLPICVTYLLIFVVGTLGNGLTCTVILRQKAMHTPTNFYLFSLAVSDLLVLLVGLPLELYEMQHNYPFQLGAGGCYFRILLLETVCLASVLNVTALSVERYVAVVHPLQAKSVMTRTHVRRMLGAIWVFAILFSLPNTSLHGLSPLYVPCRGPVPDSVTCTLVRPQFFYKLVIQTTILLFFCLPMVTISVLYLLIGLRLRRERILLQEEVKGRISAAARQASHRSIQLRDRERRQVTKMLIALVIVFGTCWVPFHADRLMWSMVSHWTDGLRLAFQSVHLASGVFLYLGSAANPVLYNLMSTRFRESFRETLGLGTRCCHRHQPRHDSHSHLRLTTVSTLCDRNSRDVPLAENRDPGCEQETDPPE

rat NMUR1-TTG [7] = biological target: T7, rat NMUR1-TTG (rat, UniProt Q9JJI5 1-425); assay: cell-based or functional assay
T7 sequence (looked up): T6 sequence (looked up)

rat NMUR2 [8] = biological target: T8, rat NMUR2 (rat, UniProt Q9ESQ4 1-395); assay: cell-based or functional assay
T8 sequence (Q9ESQ4 whole entry): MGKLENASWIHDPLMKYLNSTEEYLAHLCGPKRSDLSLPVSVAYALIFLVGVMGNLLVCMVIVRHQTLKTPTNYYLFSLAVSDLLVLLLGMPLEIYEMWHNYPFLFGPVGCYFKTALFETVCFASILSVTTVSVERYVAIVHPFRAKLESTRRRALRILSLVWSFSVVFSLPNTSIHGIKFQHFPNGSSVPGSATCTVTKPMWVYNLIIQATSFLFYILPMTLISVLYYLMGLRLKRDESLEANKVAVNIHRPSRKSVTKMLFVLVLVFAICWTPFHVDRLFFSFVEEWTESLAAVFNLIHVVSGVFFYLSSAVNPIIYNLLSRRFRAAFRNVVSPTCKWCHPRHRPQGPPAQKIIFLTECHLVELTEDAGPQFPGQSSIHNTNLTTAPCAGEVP

human NMUR1 [9] = biological target: T1, human NMUR1; assay: cell-based or functional assay; remark: listed apart in the source
human NMUR2 [10] = biological target: T2, human NMUR2; assay: cell-based or functional assay; remark: listed apart in the source
human NMUR1 [11] = biological target: T1, human NMUR1; assay: 125I-hNMU-25 displacement, cell membranes
human NMUR2 [12] = biological target: T2, human NMUR2; assay: 125I-hNMU-25 displacement, cell membranes
mouse NMUR1-ATG [13] = biological target: T3, mouse NMUR1-ATG; assay: 125I-hNMU-25 displacement, cell membranes
mouse NMUR1-CTG [14] = biological target: T4, mouse NMUR1-CTG; assay: 125I-hNMU-25 displacement, cell membranes
mouse NMUR2 [15] = biological target: T5, mouse NMUR2; assay: 125I-hNMU-25 displacement, cell membranes
rat NMUR1-ATG [16] = biological target: T6, rat NMUR1-ATG; assay: 125I-hNMU-25 displacement, cell membranes
rat NMUR1-TTG [17] = biological target: T7, rat NMUR1-TTG; assay: 125I-hNMU-25 displacement, cell membranes
rat NMUR2 [18] = biological target: T8, rat NMUR2; assay: 125I-hNMU-25 displacement, cell membranes
human NMUR1 [19] = biological target: T1, human NMUR1; assay: 125I-hNMU-25 displacement, HEK cell membranes
Procedure, shortened: (§1)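 HEK cell membranes (2-5 μg) incubated with […] ¹²⁵I-hNMU-25 and peptides for 80 min at room temperature in TrisCl pH 7.4 buffer with MgCl₂, EDTA, bacitracin and phosphoramidon. Bound ligand collected by filtration and scintillation counting; nonspecific binding with 1 μM hNMU-25. IC₅₀ from curve fitting.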

human NMUR2 [20] = biological target: T2, human NMUR2; assay: 125I-hNMU-25 displacement, HEK cell membranes
Procedure, shortened: as §1

% activity (human NMUR1 [1]): 90%
IC50 (nM), functional (human NMUR1 [1]): 1.25 nM
% activity (human NMUR2 [2]): 0%
IC50 (nM), functional (human NMUR2 [2]): > 1000 nM
% activity (mouse NMUR1-ATG [3]): 90%
IC50 (nM), functional (mouse NMUR1-ATG [3]): 25 nM
% activity (mouse NMUR1-CTG [4]): 77%
IC50 (nM), functional (mouse NMUR1-CTG [4]): 66 nM
% activity (mouse NMUR2 [5]): 40%
IC50 (nM), functional (mouse NMUR2 [5]): > 1000 nM
% activity (rat NMUR1-ATG [6]): 95%
IC50 (nM), functional (rat NMUR1-ATG [6]): 31.1 nM
% activity (rat NMUR1-TTG [7]): 91%
IC50 (nM), functional (rat NMUR1-TTG [7]): 153 nM
% activity (rat NMUR2 [8]): 42%
IC50 (nM), functional (rat NMUR2 [8]): > 1000 nM
% activity (human NMUR1 [9]): 88%
IC50 (nM), functional (human NMUR1 [9]): 19 nM
IC50 (nM), functional (human NMUR2 [10]): > 1000 nM
% inhibition of NMU-25 binding (human NMUR1 [11]): 93%
IC50 (human NMUR1 [11]): 1.1 nM
% inhibition of NMU-25 binding (human NMUR2 [12]): 7%
IC50 (human NMUR2 [12]): 782 nM
% inhibition of NMU-25 binding (mouse NMUR1-ATG [13]): 77%
IC50 (mouse NMUR1-ATG [13]): 66 nM
% inhibition of NMU-25 binding (mouse NMUR1-CTG [14]): 83%
IC50 (mouse NMUR1-CTG [14]): 25 nM
% inhibition of NMU-25 binding (mouse NMUR2 [15]): 20%
% inhibition of NMU-25 binding (rat NMUR1-ATG [16]): 100%
IC50 (rat NMUR1-ATG [16]): 15.9 nM
% inhibition of NMU-25 binding (rat NMUR1-TTG [17]): 100%
IC50 (rat NMUR1-TTG [17]): 11 nM
% inhibition of NMU-25 binding (rat NMUR2 [18]): 0%
% activity (binding) (human NMUR1 [19]): 93%
IC50 (human NMUR1 [19]): 1.1 nM
% activity (binding) (human NMUR2 [20]): 7%
IC50 (human NMUR2 [20]): 780 nM
Binder: FRVDEEFQSPFASQSRGYF[dL]WRPRN-NH2 (not fully specified) [neuromedin U receptor agonist H]
